Measured values reported in patent publication US8779109B2, “Growth hormones with prolonged in-vivo efficacy” (Novo Nordisk Health Care AG, priority 2010, dated 2014).
Read-outs that look alike come from different tables or passages of the source.

Tests used:
[1] = biological target: T1, human growth hormone receptor (BAF-3 GHR cells) (Homo sapiens, UniProt P10912); assay: BAF-3 GHR assay to determine growth hormone activity; assay type: cell-based, mouse; conditions: Table 5; relative to hGH = 1.0 (def)
T1 construct: expressed in transfected cells; host or cells: BAF-3 (murine pro-B lymphoid cell line)
T1 sequence (P10912 19-638): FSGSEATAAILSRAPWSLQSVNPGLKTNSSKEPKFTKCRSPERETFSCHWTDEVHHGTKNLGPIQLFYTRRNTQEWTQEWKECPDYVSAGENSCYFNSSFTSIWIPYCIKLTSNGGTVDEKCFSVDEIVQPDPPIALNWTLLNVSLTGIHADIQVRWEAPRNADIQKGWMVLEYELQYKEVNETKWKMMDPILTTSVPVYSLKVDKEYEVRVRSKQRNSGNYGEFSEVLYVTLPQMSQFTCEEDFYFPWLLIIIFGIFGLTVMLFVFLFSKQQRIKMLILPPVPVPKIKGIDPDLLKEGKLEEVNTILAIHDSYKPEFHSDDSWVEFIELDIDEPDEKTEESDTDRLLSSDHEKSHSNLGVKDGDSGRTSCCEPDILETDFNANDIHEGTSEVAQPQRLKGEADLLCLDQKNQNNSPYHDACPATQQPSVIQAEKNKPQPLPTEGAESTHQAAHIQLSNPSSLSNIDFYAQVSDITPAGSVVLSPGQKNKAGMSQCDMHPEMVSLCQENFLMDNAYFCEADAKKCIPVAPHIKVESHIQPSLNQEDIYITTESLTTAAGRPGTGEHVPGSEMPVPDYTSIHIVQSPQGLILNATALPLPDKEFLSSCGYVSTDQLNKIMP
Description: This clone can be used to evaluate the effect of different growth hormone samples on the survival of the BAF-3 GHR.
The BAF-3 GHR cells are grown in starvation medium (culture medium without growth hormone) for 24 hrs at 37° C., 5% CO2.
The cells are washed and re-suspended in starvation medium and seeded in plates. 10 μL of growth hormone compound or human growth hormone in different concentrations or control is added to the cells, and the plates are incubated for 68 hrs at 37° C., 5% CO2.
AlamarBlue® is added to each well and the cells are then incubated for another 4 hrs. The AlamarBlue® is a redox indicator, and is reduced by reactions innate to cellular metabolism and, therefore, provides an indirect measure of viable cell number.
Finally, the metabolic activity of the cells is measure in a fluorescence plate reader. The absorbance in the samples is expressed in % of cells not stimulated with growth hormone compound or control and from the concentration-response curves the activity (amount of a compound that stimulates the cells with 50%) can be calculated.

plasma IGF-1 = assay: In vivo dose-response study in hypophysectomised Sprague Dawley rats (plasma IGF-1); conditions: Table 5
Description: The in vivo dose-response relationship is studied in hypophysectomised male Sprague Dawley rats. The hypophysectomised rat is a well known and recognised animal model of growth hormone deficiency, where no production of growth hormone occurs after the surgical removal of the pituitary gland. This also leads to low circulating levels of insulin-like growth factor-1 (IGF-1) another important clinical feature of growth hormone deficiency in humans.
The hypophysectomy is performed on 4 week old male rats weighing 90-100 g. The animals entering the study 3-4 weeks after the surgery weighing 100-110 g. Animals with a body weight gain of more than 10% during the 3-4 weeks after surgery are not allowed to enter the study.
Dose response studies are performed using five dose levels of compound 45.4 from 1-150 nmol/rat.

[2] = in vivo, iv
Description: (§4) The pharmacokinetic of the compounds of the examples is investigated in male Sprague Dawley rats after intravenous (i.v.) and subcutaneous (s.c.) single dose administration.
(§5) Test compounds are diluted to a final concentration of 1 mg/mL in a dilution buffer consisting of: Glycine 20 mg/mL, mannitol 2 mg/mL, NaHCO3 2.5 mg/mL, pH adjusted to 8.2.
(§6) The test compounds are studied in male Sprague Dawley rats weighing 250 g. The test compounds are administered as a single injection either i.v. in the tail vein or s.c. in the neck with a 25 G needle at a dose of 60 nmol/kg body weight.
(§7) At each sampling time 0.25 ml blood is drawn from the tail vein using a 25 G needle. The blood is sampled into a EDTA coated test tube and stored on ice until centrifugation at 1200×G for 10 min at 4° C. Plasma is transferred to a Micronic tube and stored at −20° C. until analysis.
(§8) A non-compartmental pharmacokinetic analysis is performed on mean concentration-time profiles of each test compound using WinNonlin Professional (Pharsight Inc., Mountain View, Calif., USA). The pharmacokinetic parameter estimates of terminal half-life (t1/2) and mean residence time (MRT) are calculated.

chymotrypsin = biological target: T2, chymotrypsin (Bos taurus, UniProt P00766); assay: Protease stability, incubation with chymotrypsin; assay type: in vitro ADME; conditions: incubation for 4 hours with chymotrypsin
T2 construct: purchased Roche
Description: (§1) The compound of interest is digested by a relevant protease (Trypsin, Chymotrypsin, Pepsin, Elastase, Factor VIIa, Factor Xa, Proteinase K, Carboxy peptidase, DPPIV, Neutral Endopeptidase, Granzyme B, Proline-endopeptidase, Staphylococcal peptidase I, Thermolysin, Thrombin, Arg-C proteinase, Asp-N endopeptidase, Caspase 1-10, Clostripain, Enterokinase, Glutamyl endopeptidase, Granzyme B, LysC, LysN, Proline-endopeptidase and Staphylococcal peptidase I or tissue extracts.) in an appropriate buffer (e.g. PBS or ammonium bicarbonate) at 37° C. for up till 24 hrs. Proteolytic degradation is assessed by a HPLC assay.
(§2) 100 μL of test compound solution at 1 mg/mL in ammonium bicarbonate buffer is degraded by enzyme for up till 24 hrs at 37° C. […] These diluted samples are analysed by reversed phase HPLC to estimate the degree of proteolytic digestion.
(§3) 10 μL of the above solution is injected on a reversed phase Vydac C4 2×150 mm column eluted with a linear gradient from 0.1% TFA in water to 100% acetonitrile containing 0.1% TFA over a period of 30 min at a flow rate of 0.2 ml/min. […] Percentage (%) intact compound at time point t=T is calculated from the peak area at time point t=T (AT) and the peak area at t=0 (A0) as (AT/A0)×100%. […] Half life (T1/2) is calculated as one phase decay also by GraphPad Prism software. […]

[3] = Pharmacokinetics in Sprague Dawley rats after i.v. and s.c. single dose
Description: as §4, §5, §6, §7, §8

elastase = biological target: T3, elastase (Sus scrofa, UniProt P00772); assay: Protease stability, incubation with elastase; assay type: in vitro ADME, porcine; conditions: incubation for 4 hours with elastase
T3 construct: purchased Sigma; host or cells: porcine pancreas
Description: as §1, §2, §3

T3 sequence (P00772 27-266): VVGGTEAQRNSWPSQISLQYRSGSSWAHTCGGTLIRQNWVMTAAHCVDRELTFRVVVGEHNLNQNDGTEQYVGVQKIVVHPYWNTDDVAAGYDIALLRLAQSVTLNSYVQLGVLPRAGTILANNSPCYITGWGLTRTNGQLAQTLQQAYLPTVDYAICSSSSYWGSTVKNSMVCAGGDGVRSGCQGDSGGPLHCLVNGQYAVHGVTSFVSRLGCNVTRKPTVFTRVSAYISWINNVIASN

In vitro potency [1]	Substance	Duration of IGF-1 increase (plasma IGF-1)	T1/2 (i.v. Rat) [2]	MRT ([2]; rat, 60 nmol/kg)	T1/2 ([2]; rat, 60 nmol/kg)	Chymotrypsin (% intact GH compound) (chymotrypsin)	T1/2 (i.v. Rat) ([3]; Table 4)	T1/2 (i.v. Rat) ([3]; Table 5)	Elastase (% intact GH compound) (elastase)
4.7	2-(C20diacid-Trx-γGlu-OEG-OEG-δLys)-carbonylmethylene-S^101-hGH[L101C] [Compound 44.1]	>48 h	5.6 h	7.2 h	5.6 h	–	–	–	–
–	hGH: wild-type human growth hormone, 191 amino acid residue protein (SEQ ID NO: 1)	–	–	–	–	40%	0.23 h	0.23 h	25%
